Here are results for two substances from article PMC3101314.

Assay [1] addresses mature HIV-1 protease bearing drug-resistance mutation L76V (PR_(L76V)) (HIV-1). Nature of the assay: ITC.
Assay [2] has the same target. Nature of the assay: enzyme activity against protease concentration.

As for “RPB inhibitor (H-Arg-Val-Leu-(r)-Phe-Glu-Ala-Nle-NH2), substrate-analog inhibitor with a reduced peptide bond”, in assay [1], the Kd turned out to be 61 nM.

For the substance “mature HIV-1 protease bearing drug-resistance mutation L76V (PR_(L76V)) (enzyme)”, in assay [2], the Kd was 71 nM.
